Experimental data taken from patent publication US20080242590A1, “New Method 706” (ASTRAZENECA AB, priority 2007, published 2008).

Columns and labels:
[1] = Plasma exposure (Example 24); type: in vivo, C57BL/6 mice
Method: 13 weeks old female C57BL/6 mice (10 mice/group) received vehicle or hFc-Nep at 1 or 5 mg/kg as a single intravenous injection. M-550426 was administrated per orally at 300 μmol/kg 3 hours before termination. A blank group was also included in the study.
Blood was sampled from vehicle- and compound-treated animals at 1.5 and 3 hours after dose. Blood was withdrawn from anaesthetized mice by heart puncture into pre-chilled microtainer tubes containing EDTA. Blood samples were immediately put on ice prior to centrifugation. Plasma was prepared by centrifugation for 10 minutes at approximately 3000×g at +4° C. within 20 minutes from sampling. After blood sampling, mice were terminated. […] Mouse Aβ40 levels in plasma were analysed by commercial ELISA kit obtained from Biosource. The concentrations of Fc-Nep in plasma and in the formulations were assayed according to the procedures described in Example 27.

[2] = Observations of animal health (Example 24); type: in vivo, C57BL/6 mice; settings: 1 or 5 mg/kg single i.v., whole experiment
[3] = Pharmacokinetics of Fc-Nep and in-house produced Neprilysin, single i.v. dose (Example 27); type: in vivo; settings: mice, single i.v. dose 10 or 50 nmol enzyme/kg (1 and 5 mg/kg)
Method: The Fc-Nep fusion protein was developed to improve the pharmacokinetic entities of neprilysin with the specific aims to reduce clearance and improve half-life. To test this we have administrated a single i.v. dose of 10 or 50 nmol enzyme/kg body weight neprilysin (Nep) or Fc-Nep (1 and 5 mg/kg) to mice. At set times the dose blood samples were drawn from the tail vein or by heart puncture at termination. Upon sampling into tubes containing EDTA the aliquots were put on ice. Plasma was prepared by centrifugation within 15 minutes of sampling (typically 1500 g at 4° C. for 10 min) and immediately frozen. Plasma concentrations of Nep and Fc-Nep were determined via immunoassays using either anti-Nep for Nep or anti-human IgG for Fc-Nep as capture antibodies while both substances were detected via an anti-Nep antibody. Pharmacokinetic parameters are calculated using a software package (WinNonlin, Pharsight Corporation, USA) and in this example experiment the calculated half-life had increased from about 1 day for Nep to about 2.5 weeks for Fc-Nep.

soluble Aβ40 = experiment: Soluble Aβ40 in plasma after acute i.v. treatment (Example 23); type: in vivo, APPSWE-transgenic mice
Method: The objective with this study was to evaluate the time and dose-response effect of Fc-Nep in plasma of female APPSWE-tg mice after acute intraveneous treatment. The specific purpose is to find an effect on plasma Aβ40 and Aβ42. The γ-secretase inhibitor M-550426 is included as a reference compound.
25-31 weeks old female APPSWE-transgenic mice (10 mice/group) received vehicle or the Fc-Nep at 1 or 5 mg/kg as a single intravenous injections. As a reference compound, 300 μmol/kg of the γ-secretase inhibitor M-550426 was used and these animals was treated in 3 hours (4 mice). […] Blood was sampled from vehicle- and compound-treated animals at 1.5 and 3 hours after dose. Blood was withdrawn from anaesthetized mice by heart puncture into pre-chilled microtainer tubes containing EDTA. Blood samples were immediately put on ice prior to centrifugation. Plasma was prepared by centrifugation for 10 minutes at approximately 3000×g at +4° C. within 20 minutes from sampling. After blood sampling, mice were terminated. Aβ40 and Aβ42 levels in plasma were analyzed by commercial ELISA kit obtained from Biosource and Innogenetics, respectively.

[4] = tested on: fluorogenic peptide substrate V—Mca-Arg-Pro-Gly-Phe-Ser-Ala-Phe-Lys(Dnp)-OH; experiment: Neprilysin enzyme activity FRET assay, purified protein; type: biochemical; settings: purified fusion protein
Method: The Neprilysin enzymatic activity was determined in a fluorescence resonance energy transfer (FRET) assay. Recombinant Human Neprilysin (R&D Systems), culture medium from Neprilysin or Fc-Neprilysin producing cells (AZ Sodertalje) or purified Neprilysin or Fc-Neprilysin was added into 96-well plate containing 10 μM of fluorogenic peptide substrate V—Mca-Arg-Pro-Gly-Phe-Ser-Ala-Phe-Lys(Dnp)-OH (R&D Systems). The final concentration of the control recombinant human Neprilysin was 0.1 or 0.25 μg/ml. 10 μM of Neprilysin inhibitor phosphoramidone (BIOMOL) was added into some wells in order to control the specificity of the signal in the assay and verify the specific Neprilysin activity. Following addition of all components to wells, plate was immediately placed into a fluorescent plate reader (Ascent) and signal was recorded for every minute for 20 minutes at the excitation 340 nm and emission 405 nm. The activity of enzyme was evaluated by calculating the velocity of reaction−Slope coefficient=ΣΔRFU/Δt. In order to compare the specific activity of the commercial recombinant Neprilysin and Fc-Neprilysin fusion protein, we introduced the specific activity coefficient, which is calculated according to this formula: Specific activity=slope coefficient/pmol of Neprilysin or monomer of Fc-Neprilysin in assay. […]

B1: Fc-Neprilysin: extracellular domain of human Neprilysin fused to the human IgG2 Fc domain (including hinge), Fc at N-terminus; SEQ ID NO 11 (protein)
chain: ERKCCVECPPCPAPPVAGPSVFLFPPKPKDTLMISRTPEVTCVVVDVSHEDPEVQFNWYVDGVEVHNAKTKPREEQFNSTFRVVSVLTVVHQDWLNGKEYKCKVSNKGLPAPIEKTISKTKGQPREPQVYTLPPSREEMTKNQVSLTCLVKGFYPSDIAVEWESNGQPENNYKTTPPMLDSDGSFFLYSKLTVDKSRWQQGNVFSCSVMHEALHNHYTQKSLSLSPGKYDDGICKSSDCIKSAARLIQNMDATTEPCTDFFKYACGGWLKRNVIPETSSRYGNFDILRDELEVVLKDVLQEPKTEDIVAVQKAKALYRSCINESAIDSRGGEPLLKLLPDIYGWPVATENWEQKYGASWTAEKAIAQLNSKYGKKVLINLFVGTDDKNSVNHVIHIDQPRLGLPSRDYYECTGIYKEACTAYVDFMISVARLIRQEERLPIDENQLALEMNKVMELEKEIANATAKPEDRNDPMLLYNKMTLAQIQNNFSLEINGKPFSWLNFTNEIMSTVNISITNEEDVVVYAPEYLTKLKPILTKYSARDLQNLMSWRFIMDLVSSLSRTYKESRNAFRKALYGTTSETATWRRCANYVNGNMENAVGRLYVEAAFAGESKHVVEDLIAQIREVFIQTLDDLTWMDAETKKRAEEKALAIKERIGYPDDIVSNDNKLNNEYLELNYKEDEYFENIIQNLKFSQSKQLKKLREKVDKDEWISGAAVVNAFYSSGRNQIVFPAGILQPPFFSAQQSNSLNYGGIGMVIGHEITHGFDDNGRNFNKDGDLVDWWTQQSASNFKEQSQCMVYQYGNFSWDLAGGQHLNGINTLGENIADNGGLGQAYRAYQNYIKKNGEEKLLPGLDLNHKQLFFLNFAQVWCGTYRPEYAVNSIKTDVHSPGNFRIIGTLQNSAEFSEAFHCRKNSYMNPEKKCRVW
Mean plasma exposure ([1]; 1 mg/kg i.v., 1.5 hours): 14 µg/mL
Mean plasma exposure ([1]; 1 mg/kg i.v., 3 hours): 17 µg/mL
Mean plasma exposure ([1]; 5 mg/kg i.v., 1.5 hours): 89 µg/mL
Mean plasma exposure ([1]; 5 mg/kg i.v., 3 hours): 78 µg/mL
Observations of the animal health [2]: no overt adverse effects
calculated half-life [3]: about 2.5 weeks
Change in plasma Aβ40 (soluble Aβ40; 1 and 5 mg/kg i.v., 3 hours after dose): No significant changes
Reduction of soluble Aβ40 in plasma compared to vehicle (soluble Aβ40; 1 or 5 mg/kg i.v., 1.5 hours after dose, P<0.05): approximately 20%
Specific activity (slope coefficient/pmol) [4]: 14.1
